Measurements: EP4471048A1, “PEPTIDE INHIBITORS OF INTERLEUKIN-23 RECEPTOR” (Zealand Pharma A/S, priority 2023, dated 2024)
*1 amine or outer side, *2 acyl side, *3 side chain or, on linkers, in order; H or OH if unused. Bridges are numbered along the chain shown (N, C = ends). Primed or numbered codes have the meaning given here. Where no end group is shown, it is not given here. [ ]: non-standard residue; d: D form. 4‑Aminomethyl‑phenylacetyl = 4-aminomethyl-phenylacetyl unit, its amine closes the lactam, O=C(Cc1ccc(CN[*:1])cc1)[*:2]; 1,3‑dibromopropan‑2‑one″ = linker forming 1,3-dithio-propan-2-one bridge -SCH2C(=O)CH2S- between two Cys; bLys = L-beta-lysine, (3S)-3,6-diaminohexanoic acid, O=C(C[C@H](CCCN[*:3])N[*:1])[*:2]; Phe(4-Me) = Cc1ccc(C[C@H](N)C(=O)O)cc1; 2Nal = N[C@@H](Cc1ccc2ccccc2c1)C(=O)O; AEF = NCCOc1ccc(C[C@H](N)C(=O)O)cc1; 3Pal = N[C@@H](Cc1cccnc1)C(=O)O; αMeL = CC(C)C[C@](C)(N)C(=O)O; 3Amb = NCc1cccc(C(=O)O)c1; Dab = NCC[C@H](N)C(=O)O; Aib = CC(C)(N)C(=O)O

T1: human IL-23R endogenously expressed on DB cells (human, UniProt Q5VWK5 24-629)
T1 sequence (looked up): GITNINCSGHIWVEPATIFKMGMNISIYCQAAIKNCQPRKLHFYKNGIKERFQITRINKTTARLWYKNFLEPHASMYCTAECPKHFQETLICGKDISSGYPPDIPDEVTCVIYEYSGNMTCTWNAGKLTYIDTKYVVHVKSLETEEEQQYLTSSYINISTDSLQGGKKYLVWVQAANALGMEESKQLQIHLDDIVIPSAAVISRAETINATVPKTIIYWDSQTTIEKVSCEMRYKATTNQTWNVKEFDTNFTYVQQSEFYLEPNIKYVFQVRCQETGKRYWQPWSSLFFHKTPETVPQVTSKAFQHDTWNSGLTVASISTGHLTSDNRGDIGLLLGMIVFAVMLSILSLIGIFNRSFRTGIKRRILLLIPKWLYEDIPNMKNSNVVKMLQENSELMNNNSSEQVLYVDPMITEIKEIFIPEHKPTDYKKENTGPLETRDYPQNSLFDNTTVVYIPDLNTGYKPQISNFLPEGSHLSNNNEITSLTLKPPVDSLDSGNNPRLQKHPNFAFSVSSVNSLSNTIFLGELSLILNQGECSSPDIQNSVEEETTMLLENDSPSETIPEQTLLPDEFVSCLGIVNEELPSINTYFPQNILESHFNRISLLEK

T2: Nluc-IL23R fusion protein (human, UniProt Q5VWK5 22-629)
T2 construct: range 22-629; Stably expressed in HEK293 cells; also called hIL-23R; human IL-23R; not shown: Nanoluc protein (N1371, Promega) at the N-terminus, after a secretion signal
T2 sequence (looked up): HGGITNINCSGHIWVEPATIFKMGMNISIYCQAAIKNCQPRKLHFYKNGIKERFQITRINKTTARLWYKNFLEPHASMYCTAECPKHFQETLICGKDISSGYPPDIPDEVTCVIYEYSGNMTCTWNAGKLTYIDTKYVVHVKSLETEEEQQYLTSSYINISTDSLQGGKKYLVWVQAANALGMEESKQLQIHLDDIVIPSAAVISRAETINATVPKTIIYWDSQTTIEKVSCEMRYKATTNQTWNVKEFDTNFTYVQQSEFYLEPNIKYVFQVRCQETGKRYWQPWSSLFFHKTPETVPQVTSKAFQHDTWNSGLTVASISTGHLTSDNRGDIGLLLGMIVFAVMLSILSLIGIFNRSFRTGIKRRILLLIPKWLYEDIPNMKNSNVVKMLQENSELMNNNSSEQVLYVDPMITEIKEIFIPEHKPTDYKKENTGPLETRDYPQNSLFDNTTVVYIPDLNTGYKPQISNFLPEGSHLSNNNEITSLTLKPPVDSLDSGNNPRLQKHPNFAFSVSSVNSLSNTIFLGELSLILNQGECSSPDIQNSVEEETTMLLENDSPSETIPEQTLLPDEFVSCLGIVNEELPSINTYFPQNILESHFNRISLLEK


Columns and labels:
[1] = target: T1, human IL-23R endogenously expressed on …; assay: cell-based or functional assay
[2] = target: T2, Nluc-IL23R fusion protein; assay: BRET competition vs TAMRA-labelled peptide, Nluc-IL23R membranes

Binder	hIL-23 (pSTAT3) antagonist % inhibition [1] [%]	hIL-23 (pSTAT3) antagonist IC50 [1]	% displacement [2] [%]	IC50 [2] [nM]
[3Amb]SCWQC[AEF][2Nal][αMeL]E[dR]-NH2 (lactam N-10; linker 3-6 via 1,3‑dibromopropan‑2‑one″) [Ref 41]	99	29 nM	110	
KIVWQE[Phe(4-Me)][2Nal][Aib]E[Dab][3Pal]-NH2 (lactam 1-10, N-6; SMILES CC[C@H](C)[C@@H]1NC(=O)[C@@H]2CCCCNC(=O)CC[C@@H](C(=O)N[C@@H](CCN)C(=O)N[C@@H](Cc3cccnc3)C(N)=O)NC(=O)C(C)(C)NC(=O)[C@H](Cc3ccc4ccccc4c3)NC(=O)[C@H](Cc3ccc(C)cc3)NC(=O)[C@H](CCC(=O)N2)NC(=O)[C@H](CCC(N)=O)NC(=O)[C@H](Cc2c[nH]c3ccccc23)NC(=O)[C@H](C(C)C)NC1=O) [Compound 17]	99	2.9 nM	107	0.092
[dK]TVWQD[AEF][2Nal][αMeL]E[Dab][3Pal]-NH2 (lactam 1-10, N-6; SMILES CC(C)C[C@]1(C)NC(=O)[C@H](Cc2ccc3ccccc3c2)NC(=O)[C@H](Cc2ccc(OCCN)cc2)NC(=O)[C@@H]2CC(=O)N[C@H](CCCCNC(=O)CC[C@@H](C(=O)N[C@@H](CCN)C(=O)N[C@@H](Cc3cccnc3)C(N)=O)NC1=O)C(=O)N[C@@H]([C@@H](C)O)C(=O)N[C@@H](C(C)C)C(=O)N[C@@H](Cc1c[nH]c3ccccc13)C(=O)N[C@@H](CCC(N)=O)C(=O)N2) [Compound 3]	101	1.5 nM	105	
[4‑Aminomethyl‑phenylacetyl]SCWQC[AEF][2Nal][αMeL]E[Dab]-NH2 (lactam N-10; linker 3-6 via 1,3‑dibromopropan‑2‑one″) [Ref 82]	97	11 nM	103	
[4‑Aminomethyl‑phenylacetyl]SCWQC[AEF][2Nal][αMeL]E[Dab][3Pal]-NH2 (lactam N-10; linker 3-6 via 1,3‑dibromopropan‑2‑one″) [Ref 120]	101	54 pM	94	
[4‑Aminomethyl‑phenylacetyl]SCWQC[AEF][2Nal][αMeL]ER-NH2 (lactam N-10; linker 3-6 via 1,3‑dibromopropan‑2‑one″) [Ref 52]	103	7.8 nM	100	
KTWQE[AEF][2Nal][αMeL]E[Dab][3Pal]-NHMe (lactam 1-9, N-5; SMILES CNC(=O)[C@H](Cc1cccnc1)NC(=O)[C@H](CCN)NC(=O)[C@@H]1CCC(=O)NCCCC[C@@H]2NC(=O)CC[C@H](NC(=O)[C@H](CCC(N)=O)NC(=O)[C@H](Cc3c[nH]c4ccccc34)NC(=O)[C@H]([C@@H](C)O)NC2=O)C(=O)N[C@@H](Cc2ccc(OCCN)cc2)C(=O)N[C@@H](Cc2ccc3ccccc3c2)C(=O)N[C@@](C)(CC(C)C)C(=O)N1) [Compound 36]	97	1.1 nM	100	
[bLys]TVWQE[AEF][2Nal][αMeL]E[Dab][3Pal]-NH2 (lactam 1-10, N-6) [Compound 12]	100		104	
KTVWQE[AEF][2Nal][αMeL]E[Dab][3Pal]-NH2 (lactam 1-10, N-6; SMILES CC(C)C[C@]1(C)NC(=O)[C@H](Cc2ccc3ccccc3c2)NC(=O)[C@H](Cc2ccc(OCCN)cc2)NC(=O)[C@@H]2CCC(=O)N[C@@H](CCCCNC(=O)CC[C@@H](C(=O)N[C@@H](CCN)C(=O)N[C@@H](Cc3cccnc3)C(N)=O)NC1=O)C(=O)N[C@@H]([C@@H](C)O)C(=O)N[C@@H](C(C)C)C(=O)N[C@@H](Cc1c[nH]c3ccccc13)C(=O)N[C@@H](CCC(N)=O)C(=O)N2) [Compound 2]	99	0.11 nM	100	
Ac-KTCWQC[AEF][2Nal][αMeL]E[Dab][3Pal]-NH2 (lactam 1-10; linker 3-6 via 1,3‑dibromopropan‑2‑one″) [Ref 155]	100	31 pM	97	

The remaining lines, values ahead:

hIL-23 (pSTAT3) antagonist % inhibition [1] [%]	hIL-23 (pSTAT3) antagonist IC50 [1]	% displacement [2] [%]	IC50 [2] [nM]	Binder
		100		KWQE[AEF][2Nal][αMeL]E[Dab][3Pal]-NHMe (lactam 1-8, N-4; SMILES CNC(=O)[C@H](Cc1cccnc1)NC(=O)[C@H](CCN)NC(=O)[C@@H]1CCC(=O)NCCCC[C@@H]2NC(=O)CC[C@H](NC(=O)[C@H](CCC(N)=O)NC(=O)[C@H](Cc3c[nH]c4ccccc34)NC2=O)C(=O)N[C@@H](Cc2ccc(OCCN)cc2)C(=O)N[C@@H](Cc2ccc3ccccc3c2)C(=O)N[C@@](C)(CC(C)C)C(=O)N1) [Compound 43]
		96		XTWQXXXXEXX (not fully specified; [{d}(N3)-K](1c)(6g)^†TWQ[Hpg](6g)[Y(2-aminoethoxy)][2-Nal][2-Me-Leu]E(1c)[Dab][3-(3-Pyridyl)-Ala]-[NHMe]; (1c) [2,11] lactam; (6g) [2,7] 1,4-disubstituted 1,2,3-triazole bridge; ^† alpha-amine converted into an azide in bridge) [Compound 42]
102	0.23 nM	103		[dK]TVWQE[AEF][2Nal][αMeL]E[Dab][3Pal]-NH2 (lactam 1-10; lactam (positions not given here); not fully specified (bridges); printed as [{d}K](1c)(6c)^{†}TVWQE(6c)[Y(2-aminoethoxy)][2-Nal][2-Me-Leu]E(1c)[Dab][3-(3-Pyridyl)-Ala]-[NH2]) [Compound 1]
100	0.13 nM	100		[3Amb]SCWQC[AEF][2Nal][αMeL]ER[3Pal]-NH2 (lactam N-10; linker 3-6 via 1,3‑dibromopropan‑2‑one″) [Ref 78]
	28 pM	97		[4‑Aminomethyl‑phenylacetyl]SEWQ[Dab][AEF][2Nal][αMeL]E[Dab][3Pal]-NH2 (lactam N-10; bridge 3-6; also: (2c) bridge type not defined) [Ref 122]
101	0.63 nM	95		KIVWQE[AEF][2Nal][αMeL]E[Dab][3Pal]-NHMe (lactam 1-10, N-6; SMILES CC[C@H](C)[C@@H]1NC(=O)[C@@H]2CCCCNC(=O)CC[C@@H](C(=O)N[C@@H](CCN)C(=O)N[C@@H](Cc3cccnc3)C(=O)NC)NC(=O)[C@](C)(CC(C)C)NC(=O)[C@H](Cc3ccc4ccccc4c3)NC(=O)[C@H](Cc3ccc(OCCN)cc3)NC(=O)[C@H](CCC(=O)N2)NC(=O)[C@H](CCC(N)=O)NC(=O)[C@H](Cc2c[nH]c3ccccc23)NC(=O)[C@H](C(C)C)NC1=O) [Compound 60]
97	11 nM	98		[4‑Aminomethyl‑phenylacetyl]SCWQC[AEF][2Nal][αMeL]E[dR]-NH2 (lactam N-10; linker 3-6 via 1,3‑dibromopropan‑2‑one″) [Ref 80]
